Results reported in article doi:10.1101/2023.07.20.549907, “Mechanism of outer kinetochore assembly on microtubules and its regulation by mitotic error correction” (bioRxiv, 2023).

B1: Dam1 subunit of the Dam1 complex (natural protein, S. cerevisiae, UniProt P53267 1-343, looked up)
chain: MSEDKAKLGTTRSATEYRLSIGSAPTSRRSSMGESSSLMKFADQEGLTSSVGEYNENTIQQLLLPKIRELSDSIITLDSNFTRLNFIHESLADLNESLGSLLYGIMSNSWCVEFSQAPHDIQDDLIAIKQLKSLEDEKNNLVMELSNMERGIKRKKDEQGENDLAKASQNKQFNQPLFPSSQVRKYRSYDNRDKRKPSKIGNNLQVENEEDYEDDTSSEASFVLNPTNIGMSKSSQGHVTKTTRLNNNTNSKLRRKSILHTIRNSIASGADLPIENDNVVNLGDLHPNNRISLGSGAARVVNGPVTKNRNSMFSGRAERKPTESRHSVAKKTEKKINTRPPFR
notes: Dam1 subunit of the S. cerevisiae Dam1 complex; Stood in the structure as part of the whole Dam1 complex; also called Dam1^Staple (residues 1-26); Dam1^C-ter; source: as subunit of m2
B2: Spc34 subunit of the Dam1 complex (natural protein, S. cerevisiae, UniProt P36131 1-295, looked up)
chain: MGESLDRCIDDINRAVDSMSTLYFKPPGIFHNAILQGASNKASIRKDITRLIKDCNHDEAYLLFKVNPEKQSVSRRDGKEGVFDYVIKRDTDMKRNRRLGRPGEKPIIHVPKEVYLNKDRLDLNNKRRRTATTSGGGLNGFIFDTDLIGSSVISNSSSGTFKALSAVFKDDPQIQRLLYALENGSVLMEEESNNQRRKTIFVEDFPTDLILKVMAEVTDLWPLTEFKQDYDQLYHNYEQLSSKLRFIKKEVLLQDDRLKTMSQYHPSSSHDVAKIIRKEKDEIRRLEMEIANLQE
notes: Spc34 subunit of the S. cerevisiae Dam1 complex; Stood in the structure as part of the whole Dam1 complex; source: as subunit of m2
B3: Spc19 subunit of the Dam1 complex (natural protein, S. cerevisiae, UniProt Q03954 1-165, looked up)
chain: MTDALEQSVLALEGTVSVLKDSVESLKCANEPSTNLASTMLQTKRVFRLVPEYDVERSKLDLIEEVEPLVRTLGDKLRKSMGRMQRELDTLQQTYELNDLRLKKNISMDDDDALNSPDMGQEYEGRDADDVVMMASSTNEELEELKKLKEKKKQLENKLEILKQK
notes: Spc19 subunit of the S. cerevisiae Dam1 complex; Stood in the structure as part of the whole Dam1 complex; source: as subunit of m2
B4: Dad1 subunit of the Dam1 complex (natural protein, S. cerevisiae, UniProt Q12248 1-94, looked up)
chain: MMASTSNDEEKLISTTDKYFIEQRNIVLQEINETMNSILNGLNGLNISLESSIAVGREFQSVSDLWKTLYDGLESLSDEAPIDEQPTLSQSKTK
notes: Dad1 subunit of the S. cerevisiae Dam1 complex; Stood in the structure as part of the whole Dam1 complex; also called Dad1^A; source: as subunit of m2
B5: Dad4 subunit of the Dam1 complex (natural protein, S. cerevisiae, UniProt P69851 1-72, looked up)
chain: MENPHEQVQANILSRIIGNVKRLNESVAILNQELVTINNRNKNLEIMGAICDNYHSSVQFNLEATNNKKPPL
notes: Dad4 subunit of the S. cerevisiae Dam1 complex; Stood in the structure as part of the whole Dam1 complex; also called Dad4^B; source: as subunit of m2
B6: Ask1 subunit of the Dam1 complex (natural protein, S. cerevisiae, UniProt P35734 1-292, looked up)
chain: MDSASKEETLEKLDQEITVNLQKIDSNLSFCFHKITQDIIPHVATYSEICERIMDSTEWLGTMFQETGLVNLQANAAAPVGNAPVKSLVSNNVGIFPTSAEEASRQSQTDNGPNEADSAVHVNRDVHSMFNNDSIDDFHTANITSTGQILKLPDSSDEDTGSEAVPSREQTDLTGEGHGGADDEQDESTIQRQSRKRKISLLLQQQYGSSSSMVPSPIVPNKMRKQLAHEEHINNDGDNDDENSNNIESSPLKQGHHHPKGQADDNNEGPDEEESTKEVPKPGTIIHFSTNR
notes: Ask1 subunit of the S. cerevisiae Dam1 complex; Stood in the structure as part of the whole Dam1 complex; also called Ask1^B; source: as subunit of m2

Assays:
Assay in all cases: cryo-EM structure; complexes assembled on cryo-EM grids by step-wise addition of taxol-stabilized microtubule filaments, Ndc80c and Dam1c; sub-boxing, signal subtraction and symmetry expansion for the separate reconstructions
Conditions in all cases: both partners purified
[1] = molecular target: T1, Ndc80 subunit of the Ndc80 complex (S. cerevisiae, UniProt P40460 1-691)
T1 construct: Ndc80 subunit of the budding yeast Ndc80 complex; Stood in the structure as part of the Ndc80 complex; also called Ndc80^CH; Ndc80^CC; source: as subunit of m1

[2] = molecular target: T2, Nuf2 subunit of the Ndc80 complex (S. cerevisiae, UniProt P33895 1-451)
T2 construct: Nuf2 subunit of the budding yeast Ndc80 complex; Stood in the structure as part of the Ndc80 complex; also called Nuf2^CH; Nuf2^CC; source: as subunit of m1

[3] = molecular target: T3, Ndc80 complex (Ndc80, Nuf2, Spc24, Spc25), budding yeast (S. cerevisiae, UniProt P40460 1-691; P33895 1-451; Q04477 1-213; P40014 1-221)
T3 construct: Ndc80 subunit of the budding yeast Ndc80 complex; Nuf2 subunit of the budding yeast Ndc80 complex; Spc24 subunit of the budding yeast Ndc80 complex; Spc25 subunit of the budding yeast Ndc80 complex; Complex used for cryo-EM; Spc24-Spc25 gave no cryo-EM density; copies: + + +

[4] = molecular target: B2
[5] = molecular target: B1

T1 sequence (P40460 whole entry, one chain of several): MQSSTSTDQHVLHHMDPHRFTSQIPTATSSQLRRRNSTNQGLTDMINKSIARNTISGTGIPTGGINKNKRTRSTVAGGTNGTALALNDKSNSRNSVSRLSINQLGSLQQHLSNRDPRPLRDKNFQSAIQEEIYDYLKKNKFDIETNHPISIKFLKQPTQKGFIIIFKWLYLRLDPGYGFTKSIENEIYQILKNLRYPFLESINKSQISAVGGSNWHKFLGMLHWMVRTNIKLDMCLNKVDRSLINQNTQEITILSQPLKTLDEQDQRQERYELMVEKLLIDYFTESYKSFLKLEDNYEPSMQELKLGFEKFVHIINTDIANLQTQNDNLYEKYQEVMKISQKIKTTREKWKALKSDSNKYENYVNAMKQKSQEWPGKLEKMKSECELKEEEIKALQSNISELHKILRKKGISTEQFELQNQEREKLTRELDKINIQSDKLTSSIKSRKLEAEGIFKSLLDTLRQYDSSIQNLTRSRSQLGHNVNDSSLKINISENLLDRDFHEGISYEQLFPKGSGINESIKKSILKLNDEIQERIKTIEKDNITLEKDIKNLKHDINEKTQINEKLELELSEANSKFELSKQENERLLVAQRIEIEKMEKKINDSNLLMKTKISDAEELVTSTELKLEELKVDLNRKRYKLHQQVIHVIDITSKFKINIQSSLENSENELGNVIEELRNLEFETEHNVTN
T2 sequence (P33895 whole entry, one chain of several): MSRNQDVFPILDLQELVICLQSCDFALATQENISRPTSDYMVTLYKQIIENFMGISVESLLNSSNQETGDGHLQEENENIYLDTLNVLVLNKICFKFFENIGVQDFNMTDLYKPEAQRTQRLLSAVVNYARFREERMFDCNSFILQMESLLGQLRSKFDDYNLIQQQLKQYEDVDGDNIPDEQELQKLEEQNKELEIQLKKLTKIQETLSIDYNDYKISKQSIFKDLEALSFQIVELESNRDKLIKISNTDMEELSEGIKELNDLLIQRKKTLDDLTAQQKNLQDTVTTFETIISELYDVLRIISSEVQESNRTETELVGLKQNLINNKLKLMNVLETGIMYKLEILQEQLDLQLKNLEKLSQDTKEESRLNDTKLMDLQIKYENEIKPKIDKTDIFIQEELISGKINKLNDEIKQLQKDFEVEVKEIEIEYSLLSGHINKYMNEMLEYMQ
T3 sequence (P40460 whole entry, chain 1 of 4): as the sequence (P40460 whole entry, one chain of several) above
T3 sequence (P33895 whole entry, chain 2 of 4): as the sequence (P33895 whole entry, one chain of several) above
T3 sequence (Q04477 whole entry, chain 3 of 4): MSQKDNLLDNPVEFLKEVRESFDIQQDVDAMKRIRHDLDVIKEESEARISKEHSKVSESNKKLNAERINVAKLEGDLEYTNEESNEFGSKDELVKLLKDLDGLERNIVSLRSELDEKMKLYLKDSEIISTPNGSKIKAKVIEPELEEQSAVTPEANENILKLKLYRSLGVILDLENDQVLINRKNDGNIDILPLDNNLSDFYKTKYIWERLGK
T3 sequence (P40014 whole entry, chain 4 of 4): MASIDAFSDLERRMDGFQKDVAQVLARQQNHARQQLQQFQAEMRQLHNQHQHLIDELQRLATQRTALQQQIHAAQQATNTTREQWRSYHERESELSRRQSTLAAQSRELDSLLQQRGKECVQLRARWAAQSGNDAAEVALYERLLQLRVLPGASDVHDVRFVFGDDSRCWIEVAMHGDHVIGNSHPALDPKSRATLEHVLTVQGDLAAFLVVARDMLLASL

| Binder | binding result [1] | binding result [5] | further results |
| --- | --- | --- | --- |
| B1 | binds | – | binding result [2]: binds |
| B2 | – | – | binding result [3]: binds |
| B3 | binds | – | binding result [4]: binds |
| B4 | – | binds | – |
| B5 | – | binds | – |
| B6 | – | binds | – |
